Assay [1] deals with HaloTag-KIF21B full-length (FL). In words: single-molecule photobleaching step counting.
Assay [2] has as its target microtubules (polymer of alpha and beta tubulin). In words: single-molecule TIRF microscopy on microtubules.
A further assay concerns the target HaloTag-KIF21B 1-657. In words: single-molecule photobleaching step counting.

Sequence of HaloTag-KIF21B full-length (FL) (natural protein) (O75037 whole entry): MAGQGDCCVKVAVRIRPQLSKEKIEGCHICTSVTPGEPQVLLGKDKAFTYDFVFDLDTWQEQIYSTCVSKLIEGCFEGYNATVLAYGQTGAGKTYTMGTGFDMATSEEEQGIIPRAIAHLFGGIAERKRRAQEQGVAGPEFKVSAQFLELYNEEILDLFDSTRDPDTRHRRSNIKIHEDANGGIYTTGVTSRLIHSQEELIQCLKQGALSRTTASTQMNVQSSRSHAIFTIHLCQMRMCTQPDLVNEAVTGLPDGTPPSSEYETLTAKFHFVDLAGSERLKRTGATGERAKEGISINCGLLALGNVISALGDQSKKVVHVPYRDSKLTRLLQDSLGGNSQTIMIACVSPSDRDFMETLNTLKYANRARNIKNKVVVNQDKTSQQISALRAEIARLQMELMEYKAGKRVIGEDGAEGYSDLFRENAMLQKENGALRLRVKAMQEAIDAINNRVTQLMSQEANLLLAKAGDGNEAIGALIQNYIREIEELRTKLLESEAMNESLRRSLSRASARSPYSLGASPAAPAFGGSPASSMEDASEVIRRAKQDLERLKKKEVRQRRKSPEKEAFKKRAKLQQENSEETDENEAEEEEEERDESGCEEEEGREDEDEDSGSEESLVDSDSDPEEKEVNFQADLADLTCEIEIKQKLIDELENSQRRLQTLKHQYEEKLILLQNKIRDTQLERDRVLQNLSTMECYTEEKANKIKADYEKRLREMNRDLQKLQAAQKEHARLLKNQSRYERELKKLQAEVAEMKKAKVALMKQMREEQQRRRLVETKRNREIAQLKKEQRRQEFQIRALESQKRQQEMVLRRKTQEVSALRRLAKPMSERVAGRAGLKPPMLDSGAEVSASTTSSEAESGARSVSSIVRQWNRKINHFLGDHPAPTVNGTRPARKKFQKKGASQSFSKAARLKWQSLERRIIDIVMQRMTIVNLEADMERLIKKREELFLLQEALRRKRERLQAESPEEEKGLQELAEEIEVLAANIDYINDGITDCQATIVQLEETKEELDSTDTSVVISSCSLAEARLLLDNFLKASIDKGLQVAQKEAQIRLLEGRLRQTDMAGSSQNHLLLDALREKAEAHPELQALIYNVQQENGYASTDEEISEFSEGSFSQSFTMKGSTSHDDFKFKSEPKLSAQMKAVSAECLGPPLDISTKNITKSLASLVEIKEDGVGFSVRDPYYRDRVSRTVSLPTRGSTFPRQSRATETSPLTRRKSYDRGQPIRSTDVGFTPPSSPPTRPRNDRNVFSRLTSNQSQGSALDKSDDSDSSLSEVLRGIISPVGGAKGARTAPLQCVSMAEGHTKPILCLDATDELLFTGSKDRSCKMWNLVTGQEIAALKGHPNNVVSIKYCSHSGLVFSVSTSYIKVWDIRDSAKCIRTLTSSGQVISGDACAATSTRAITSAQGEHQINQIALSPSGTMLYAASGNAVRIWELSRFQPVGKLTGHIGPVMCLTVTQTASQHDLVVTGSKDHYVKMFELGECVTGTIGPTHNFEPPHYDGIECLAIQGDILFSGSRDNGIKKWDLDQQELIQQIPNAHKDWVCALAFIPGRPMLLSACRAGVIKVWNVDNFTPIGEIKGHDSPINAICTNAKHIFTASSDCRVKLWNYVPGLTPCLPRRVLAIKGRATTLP
Sequence of microtubules (polymer of alpha and beta tubulin) (P68363 whole entry, chain 1 of 2): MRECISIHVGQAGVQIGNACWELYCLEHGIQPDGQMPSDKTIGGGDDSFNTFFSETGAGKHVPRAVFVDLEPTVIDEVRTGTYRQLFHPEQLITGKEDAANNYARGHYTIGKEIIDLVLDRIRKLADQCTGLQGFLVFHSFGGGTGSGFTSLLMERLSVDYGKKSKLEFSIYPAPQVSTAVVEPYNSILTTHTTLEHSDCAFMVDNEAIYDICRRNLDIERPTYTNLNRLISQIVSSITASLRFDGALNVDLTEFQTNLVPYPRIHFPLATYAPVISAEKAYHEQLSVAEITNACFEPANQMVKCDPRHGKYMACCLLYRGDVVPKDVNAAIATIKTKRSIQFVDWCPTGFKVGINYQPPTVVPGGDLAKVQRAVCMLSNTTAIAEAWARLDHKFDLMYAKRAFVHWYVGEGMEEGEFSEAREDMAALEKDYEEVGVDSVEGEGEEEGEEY
Sequence of microtubules (polymer of alpha and beta tubulin) (A8K068 whole entry, chain 2 of 2, further chain): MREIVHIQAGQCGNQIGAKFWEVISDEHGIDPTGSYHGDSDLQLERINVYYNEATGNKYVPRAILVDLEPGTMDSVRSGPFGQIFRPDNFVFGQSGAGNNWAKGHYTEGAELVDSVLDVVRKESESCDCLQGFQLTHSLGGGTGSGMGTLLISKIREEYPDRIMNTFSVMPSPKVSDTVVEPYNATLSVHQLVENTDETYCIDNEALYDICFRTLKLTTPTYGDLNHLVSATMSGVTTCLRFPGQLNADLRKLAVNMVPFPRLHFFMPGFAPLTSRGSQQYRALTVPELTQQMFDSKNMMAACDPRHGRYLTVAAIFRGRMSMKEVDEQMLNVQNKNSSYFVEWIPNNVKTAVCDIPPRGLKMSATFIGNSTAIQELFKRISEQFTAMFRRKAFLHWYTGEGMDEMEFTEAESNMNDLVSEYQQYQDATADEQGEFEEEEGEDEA
Sequence of HaloTag-KIF21B 1-657 (domain or fragment) (O75037 1-657): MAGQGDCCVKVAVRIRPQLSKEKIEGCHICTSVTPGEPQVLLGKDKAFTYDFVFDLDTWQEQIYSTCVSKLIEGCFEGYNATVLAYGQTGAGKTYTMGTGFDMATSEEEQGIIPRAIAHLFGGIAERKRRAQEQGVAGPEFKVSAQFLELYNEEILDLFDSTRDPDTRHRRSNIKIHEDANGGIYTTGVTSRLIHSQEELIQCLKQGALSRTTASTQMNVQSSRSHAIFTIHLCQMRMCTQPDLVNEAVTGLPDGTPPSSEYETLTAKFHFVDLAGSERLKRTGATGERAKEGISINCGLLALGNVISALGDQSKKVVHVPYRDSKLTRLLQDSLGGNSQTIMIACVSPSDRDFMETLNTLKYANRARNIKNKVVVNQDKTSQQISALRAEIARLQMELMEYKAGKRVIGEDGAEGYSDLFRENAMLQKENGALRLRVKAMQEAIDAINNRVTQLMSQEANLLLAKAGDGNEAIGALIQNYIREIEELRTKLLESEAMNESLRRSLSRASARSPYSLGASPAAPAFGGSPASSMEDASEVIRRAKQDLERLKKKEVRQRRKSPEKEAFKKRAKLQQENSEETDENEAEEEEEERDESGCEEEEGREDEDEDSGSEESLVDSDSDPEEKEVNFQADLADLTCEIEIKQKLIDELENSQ

Substance “HaloTag-KIF21B full-length (FL) (natural protein)” displayed a stoichiometry N in assay [1] of 2. Moreover, in assay [2], the particles per μm MT (particles/μm MT) turned out to be 0.5.
In the assay with HaloTag-KIF21B 1-657, “HaloTag-KIF21B 1-657 (domain or fragment)” registered a stoichiometry N of 2. For the same substance, the particles per μm MT (particles/μm MT) in assay [2] stood at 0.067.

By stoichiometry N is commonly meant the number of molecules, sites or subunits per partner or assembly.
